± gives the uncertainty stated by the source.
Assay: self-splicing fitness, log relative to wild type (ln ratio); higher = more splicing; Tetrahymena group I intron in knt gene, E. coli kanamycin selection, DiMSum; sequences stand for … in CUCUCU…GGAGGGAAAAGUUAUCAGGCAUGCACCUGGUAGCUAGUCUUUAAACCAAUAGAUUGCAUCGGUUUAAAAGGCAAGACCGUCAAAUUGCGGGAAAGGGGUCAACAGCCGUUCAGUACCAAGUCUCAGGGGAAACUUUGAGAUGGCCUUGCAAAGGGUAUGGUAAUAAGCUGACGGACAUGGUCCUAACCACGCAGCCAAGUCCUAAGUCAACAGAUCUUCUGUUGAUAUGGAUGCAGUUCACAGACUAAAUGUCGGUCGGGGAAGAUGUAUUCUUCUCAUAAGAUAUAGUCGGACCUCUCCUUAAUGGGAGCUAGCGGAUGAAGUGAUGCAACACUGGAGCCGCUGGGAACUAAUUUGUAUGCGAAAGUAUAUUGAUUAGUUUUGGAGUACUCGUGGUCG
Outline: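 The eight P1ex-region nucleotides of an intron in the knt kanamycin-resistance gene on pET-22b(+) were all randomised and the library put into E. coli BL21(DE3). Six replicate transformations were grown overnight at 37°C or 30°C on LB agar with or without 25 μg/mL kanamycin, together with 100 μg/mL carbenicillin, 50 μM IPTG and 0.2% rhamnose. Colonies were pooled and amplicon-sequenced on an Illumina HiSeq 2500. Fitness from DiMSum is the error-weighted combination of wild-type-normalised replicate fold changes, kanamycin over none.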

| Sequence | self-splicing fitness (ln) (30 °C) | self-splicing fitness (ln) (37 °C) |
| --- | --- | --- |
| GGCGAGCAAUAUUACGCGUG | -1.15 ± 0.19 | -0.666 ± 0.2 |
| CGUUAGCAAUAUUACGUCUU | -4.03 ± 0.26 | -1.29 ± 0.099 |
| AUUGAGCAAUAUUACGUGUG | -2.38 ± 0.11 | -2.41 ± 0.16 |
| CGGCAGCAAUAUUACGUUCU | -0.518 ± 0.08 | -0.416 ± 0.11 |
| UGUUAGCAAUAUUACGGUAG | -0.65 ± 0.22 | -0.35 ± 0.19 |
| AAUAAGCAAUAUUACGUGUC | -3 ± 0.14 | -0.777 ± 0.14 |
| AUAGAGCAAUAUUACGUGGC | -3.18 ± 0.4 | -2.7 ± 0.26 |
| CAACAGCAAUAUUACGUCUC | -2.24 ± 0.074 | -0.669 ± 0.081 |
| CAGCAGCAAUAUUACGCGUG | -3.2 ± 0.18 | -1.92 ± 0.15 |
| UCGAAGCAAUAUUACGAAAU |  | -2.56 ± 0.41 |
| UCAGAGCAAUAUUACGUAAA | -2.65 ± 0.15 | -1.95 ± 0.25 |
| CCUUAGCAAUAUUACGUUCU | -4.18 ± 0.46 | -1.5 ± 0.34 |
| AAGUAGCAAUAUUACGUUGA | -3.64 ± 0.32 | -2.29 ± 0.22 |
| ACGCAGCAAUAUUACGUUCG | -1.24 ± 0.059 | -0.442 ± 0.068 |
| UGCUAGCAAUAUUACGCUCA | -0.263 ± 0.15 | 0.646 ± 0.16 |
| CGCGAGCAAUAUUACGGUGU | -3.91 ± 0.17 | -2.34 ± 0.15 |
| CUGGAGCAAUAUUACGAGUG | -1.26 ± 0.087 | -0.568 ± 0.12 |
| CGGAAGCAAUAUUACGACAC |  | -1.66 ± 0.38 |
| GACAAGCAAUAUUACGUAUG | -2.86 ± 0.11 | -1.23 ± 0.088 |
| CGCGAGCAAUAUUACGACAC | -3.42 ± 0.49 | -1.36 ± 0.41 |
| UGGUAGCAAUAUUACGUCAG | -2.07 ± 0.19 | -0.266 ± 0.15 |

| Sequence | self-splicing fitness (ln) (30 °C) | self-splicing fitness (ln) (37 °C) |
| --- | --- | --- |
| AUUAAGCAAUAUUACGCGGA | -2.44 ± 0.2 | -0.491 ± 0.15 |
| UGGCAGCAAUAUUACGGCUG | -3.05 ± 0.33 | -2.38 ± 0.46 |
| CUAGAGCAAUAUUACGGCGG | -0.275 ± 0.075 | 0.501 ± 0.1 |
| CUCCAGCAAUAUUACGCGUC | -3.46 ± 0.28 |  |
| GUCCAGCAAUAUUACGUUUA | -0.851 ± 0.08 | -0.0697 ± 0.076 |
| CCCCAGCAAUAUUACGCCUG | -3.37 ± 0.19 | -2.97 ± 0.27 |
| CAUUAGCAAUAUUACGGGUU | -2.27 ± 0.11 | -0.829 ± 0.12 |
| CCCGAGCAAUAUUACGGGUA | -3.44 ± 0.2 | -3.43 ± 0.23 |
| UGCAAGCAAUAUUACGGCUG | -2.12 ± 0.14 | -1.14 ± 0.18 |
| UAGGAGCAAUAUUACGAUCG | -1.65 ± 0.16 | -0.888 ± 0.21 |
| UCAUAGCAAUAUUACGUAUA | -2.54 ± 0.34 | -2.13 ± 0.28 |
| GCCUAGCAAUAUUACGGAGG | -2.47 ± 0.29 | -2.65 ± 0.28 |
| AAGAAGCAAUAUUACGAAAU | -1.98 ± 0.17 | -2.03 ± 0.19 |
| UUAGAGCAAUAUUACGUACA | -1.7 ± 0.26 | -1.51 ± 0.33 |
| UAGAAGCAAUAUUACGACGU | -1.27 ± 0.1 | -0.768 ± 0.098 |
| GGUGAGCAAUAUUACGUGAU | -2.45 ± 0.13 | -1.71 ± 0.18 |
| CCAUAGCAAUAUUACGUUUC | -3.12 ± 0.15 | -0.309 ± 0.2 |
| AGUUAGCAAUAUUACGAGUC | -2.76 ± 0.33 | -3.27 ± 0.47 |
| GGCUAGCAAUAUUACGGUAA | -0.655 ± 0.15 | -0.0661 ± 0.14 |
| UCGGAGCAAUAUUACGUUGU | -3.7 ± 0.22 | -1.93 ± 0.21 |
| UUUUAGCAAUAUUACGCAGA | -0.713 ± 0.21 | -0.506 ± 0.16 |

| Sequence | self-splicing fitness (ln) (30 °C) | self-splicing fitness (ln) (37 °C) |
| --- | --- | --- |
| CCAAAGCAAUAUUACGGGUG | -1.01 ± 0.053 | -0.233 ± 0.085 |
| GGGUAGCAAUAUUACGUGCG | -0.234 ± 0.097 | -0.0569 ± 0.12 |
| CCCAAGCAAUAUUACGCUCC |  | -1.68 ± 0.42 |
| UUGGAGCAAUAUUACGACCU | -2.97 ± 0.32 | -0.7 ± 0.38 |
| CUGUAGCAAUAUUACGUCUU | -4.7 ± 0.26 | -2.67 ± 0.3 |
| GCGCAGCAAUAUUACGCGCA | -4.09 ± 0.32 | 0.322 ± 0.13 |
| UCGGAGCAAUAUUACGCUCU | -2.27 ± 0.36 | -1.68 ± 0.23 |
| CUUAAGCAAUAUUACGCUGU | -4.48 ± 0.34 | -2.3 ± 0.23 |
| UUGAAGCAAUAUUACGUCCG | 0.0359 ± 0.093 | 0.4 ± 0.12 |
| CCACAGCAAUAUUACGAUAU | -3.48 ± 0.2 | -2.01 ± 0.15 |
| CCUCAGCAAUAUUACGGUCA | -3.48 ± 0.26 | -2.04 ± 0.15 |
| AAGUAGCAAUAUUACGCGCG | -0.335 ± 0.087 | -0.184 ± 0.12 |
| UGCUAGCAAUAUUACGCAUC | -3.95 ± 0.21 | -2.45 ± 0.17 |
| GCGAAGCAAUAUUACGGGGU | -3.89 ± 0.34 | -2.89 ± 0.29 |
| AUACAGCAAUAUUACGCCUA | -1.1 ± 0.11 | -0.472 ± 0.12 |
| UUACAGCAAUAUUACGGCAU | -2.01 ± 0.074 | -0.552 ± 0.087 |
| GUGGAGCAAUAUUACGAUGA | -1.37 ± 0.19 | -1.39 ± 0.37 |
| UUACAGCAAUAUUACGUGUU | -3.43 ± 0.14 | -2.13 ± 0.13 |
| AAGAAGCAAUAUUACGUACU | 0.124 ± 0.082 | 0.141 ± 0.099 |

— the supplement of paper PMC7877785
